Data published in patent US5879917.

Test system: hUBF (RNA polymerase I transcription factor UBF), HeLa (Homo sapiens)
Experiment: footprint
Settings: 14 mM MgCl2, 50 mM KCl, pH 7.9, 30 C

| Substance | Kd (single cis-[Pt(NH3)2]2+ d(GpG) 1,2-intrastrand adduct, central, non-cooperative) [nM] | Kd (apparent Kd (half-maximal), cooperative, Hill 2.7) [nM] |
| --- | --- | --- |
| G^G-100 (100 bp with single central cisplatin 1,2-d(GpG) intrastrand crosslink) | 0.06 | – |
| human rRNA promoter -208 to +78 (EcoRI-BstEII fragment of pSBr208, 286 bp) | – | 0.018 |
